The nature of this data set: protein stability index of a GFP-peptide fusion (GPS, HEK-293T) (PSI 1-6); higher = more stable. The settings on record: c terminus: a fixed tail appended.

72 sequences from the supplement of paper PMC10567573 can be followed below.

± gives the standard deviation.
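Also: 24-mer peptide tiles fused after GFP, lentivirally expressed, FACS-sorted into six equal bins by GFP/DsRed ratio, decoded by Illumina sequencing, PSI is the read-weighted mean bin number.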

Take SNLSVENVADTLVLADLHSAEQLK [SPOPL]: the protein stability index stood at 4.65 ± 0.27 (treatment: DMSO) and 4.61 ± 0.19 (treatment: MLN4924 1 uM, 8 h).
For LYYLRASKAAAGKMNLYESFAQAT [INTS3], in that order: 2.59 ± 0.39 and 2.57 ± 0.31.
For FAASLLTVFAWLLQYARGLWLARA [C2CD2L], in that order: 2.8 ± 0.49 and 2.54 ± 0.4.
KFSYMWTINNFSFCREEMGEVLKS [SPOPL]: the protein stability index by setting is: (treatment: DMSO) 2.34 ± 0.25; (treatment: MLN4924 1 uM, 8 h) 2.19 ± 0.42.
As to EEERRRREEEERERLQKEEEKRRR [ACBD3], the protein stability index runs as follows: (treatment: DMSO) 5.59 ± 0.45; (treatment: MLN4924 1 uM, 8 h) 5.69 ± 0.12.
In the case of PGLLEEDNQWMTQINRLQKLIDRL [NECAB1], the protein stability index runs as follows: (treatment: DMSO) 2.51 ± 0.23; (treatment: MLN4924 1 uM, 8 h) 2.88 ± 0.2.
For GLQVEGLRRRLEELQQELSLKDQE [LRRC45], in that order: 4.47 ± 0.17 and 4.73 ± 0.16.
Regarding FIICIVIAILLYKSKPDRKRAESD [PTPRD], the protein stability index (treatment: DMSO) came to 2.96 ± 0.72 and the protein stability index (treatment: MLN4924 1 uM, 8 h) stood at 2.97 ± 0.043.
For LLAHRLRRWHKSRLLQASGGGLTG [PCDHGA10], in that order: 2.52 ± 0.47 and 2.07 ± 0.35.
In the case of IAELLEVFDLRMMVANILNNEAFM [RHOBTB2], the protein stability index (treatment: DMSO) was 3.36 ± 0.2 and the protein stability index (treatment: MLN4924 1 uM, 8 h) was determined as 2.98 ± 0.55.
Take SGVVRIWDLRDQSVVRDLKGYPDG [TLE6]: the protein stability index reads like this: (treatment: DMSO) 3.3 ± 0.31; (treatment: MLN4924 1 uM, 8 h) 3.42 ± 0.23.
Consider EKSVTKDAEGLAARDVQKIIGDYF [INTS4], for which the protein stability index by setting is: (treatment: DMSO) 2.85 ± 0.4; (treatment: MLN4924 1 uM, 8 h) 3.51 ± 0.12.
For the sequence AEGSPGGPGDSQGRKRRQTSMTDF [CDKN1A], the protein stability index reads like this: (treatment: DMSO) 5.23 ± 0.1; (treatment: MLN4924 1 uM, 8 h) 5.13 ± 0.22.
For VVELLLAHGADPTHRLKDGSTMLI [ANKRD17], in that order: 2.13 ± 0.34 and 2.27 ± 0.85.
For APDEKRSNVRWDHESVCKYYLCGF [LUC7L3], in that order: 2.34 ± 0.28 and 2.41 ± 0.24.
Take DDSCQDQPGTNCALAIKVNLCGHW [ADAMTSL2]: the protein stability index (treatment: DMSO) came out at 2.57 ± 0.1 and the protein stability index (treatment: MLN4924 1 uM, 8 h) is 2.65 ± 0.46.
For PMQESKAEGNNQAPGEEEEEEEEA [CHGA], in that order: 5.49 ± 0.39 and 5.74 ± 0.15.
For LEGQSGVTIKHVACGDFFTACLTD [NEK8], in that order: 2.75 ± 0.28 and 2.89 ± 0.47.
Consider NHGQVVSYLLKSGADKEILTTKGE [ANKRD40], for which the protein stability index (treatment: DMSO) was 4.08 ± 0.28 and the protein stability index (treatment: MLN4924 1 uM, 8 h) amounted to 3.9 ± 0.26.
On to ARIRDEEAQRASFLQNAVLAYVQA [LRRC45], for which the protein stability index by setting is: (treatment: DMSO) 2.46 ± 0.2; (treatment: MLN4924 1 uM, 8 h) 2.49 ± 0.29.
For PYMNPSPFTVSPNTHVSQVFNLFR [CLCN6], in that order: 2.64 ± 0.16 and 2.73 ± 0.2.
For YYFGPCGKYNAMVLELLGPSLEDL [CSNK1G3], in that order: 3 ± 1.3 and 2.66 ± 0.43.
For the sequence TFDGSLFAVFPSLNEEQTLQEVPT [ETS2], the protein stability index reads like this: (treatment: DMSO) 3.69 ± 0.28; (treatment: MLN4924 1 uM, 8 h) 3.57 ± 0.18.
For EAMAEKNRRDVEAWFFSKTEELNK [KRT15], in that order: 4.15 ± 0.23 and 4.21 ± 0.25.
For IWAKTPPITRKAAQLYTLWVTFQV [DHCR7], in that order: 3.3 ± 0.52 and 2.81 ± 0.6.
For YNCGEESLQSCMHFQPNSPASDLE [NANOGP8], in that order: 4.51 ± 0.19 and 4.17 ± 0.45.
With SLGVDTLPPPDPNPPRAEFNYSVG [APBB1IP], the protein stability index worked out at 4.1 ± 0.31 (treatment: DMSO) and 4.44 ± 0.22 (treatment: MLN4924 1 uM, 8 h).
Consider HLEDWLEKRAKRLSSAPSSRAEPI [ZMAT5], for which the protein stability index (treatment: DMSO) was determined as 4.26 ± 0.78 and the protein stability index (treatment: MLN4924 1 uM, 8 h) stood at 3.58 ± 0.081.
On to RTIRHVYCKTSDGRVVPESQCQME [ADAMTSL2], for which the protein stability index is 4.08 ± 0.16 (treatment: DMSO) and 4.09 ± 0.31 (treatment: MLN4924 1 uM, 8 h).
For VQTGLDQYQQVPVEIVKSDFHKPF [IQUB], in that order: 3.5 ± 0.22 and 3.52 ± 0.33.
As for STNEITYGLPIMVTLMVAKWTGDF [CLCN6], the protein stability index by setting is: (treatment: DMSO) 3.16 ± 0.38; (treatment: MLN4924 1 uM, 8 h) 3.03 ± 0.45.
In the case of AWHCSESGQRLGGYRTSAVASGLQ [WDFY2], the protein stability index runs as follows: (treatment: DMSO) 2.84 ± 0.14; (treatment: MLN4924 1 uM, 8 h) 3.1 ± 0.16.
For VSSLSEVEEVDMAEEFEQPTLSCE [ELOA2], in that order: 5.57 ± 0.27 and 5.52 ± 0.17.
For EVLEWYTAKDFIVGKSLTILGRTF [EFHC1], the protein stability index was 3.13 ± 0.62 (treatment: DMSO) and 2.62 ± 0.61 (treatment: MLN4924 1 uM, 8 h).
For DHPGTPPHKTFRKLRLFDTPHTPK [WEE1], in that order: 3.88 ± 0.11 and 3.98 ± 0.15.
For EEGLEARGEALGLVGAQAPATEEQ [MAGEA3], in that order: 5.57 ± 0.27 and 5.39 ± 0.34.
Regarding MEGKPMRRCTNIRPGETGMDVTSR [KLHL20], the protein stability index is 4.34 ± 0.085 (treatment: DMSO) and 4.41 ± 0.19 (treatment: MLN4924 1 uM, 8 h).
Sequence STRLTRIHLREDLVQDQDLEAIRK [ZER1] registered a protein stability index (treatment: DMSO) of 4.67 ± 0.079 and a protein stability index (treatment: MLN4924 1 uM, 8 h) of 4.7 ± 0.14.
On to SEAWEYFHLAPARAGHHPNQYATC [ZBED2], for which the protein stability index runs as follows: (treatment: DMSO) 2.59 ± 0.26; (treatment: MLN4924 1 uM, 8 h) 2.58 ± 0.23.
For EDDGLQSAFTAAHELGHVFNMLHD [ADAMTS4], in that order: 3.77 ± 0.28 and 3.9 ± 0.4.
For PSAAGAPASAPGEPRQRRLLLLDL [ANKRD9], in that order: 2.86 ± 0.29 and 3.11 ± 0.4.
For PPAEEAEQPGALAREFLAAMEPEP [FKBP8], in that order: 5.49 ± 0.45 and 5.57 ± 0.072.
On to VCVDRVLYLFGGHHSRGNTNKFYM [KLHDC2], for which the protein stability index turned out to be 2.37 ± 1.4 (treatment: DMSO) and 2.86 ± 1.1 (treatment: MLN4924 1 uM, 8 h).
Consider AQAAAAESDSRKVAEETPDGAPAL [PRKX], for which the protein stability index worked out at 5.38 ± 0.092 (treatment: DMSO) and 5.55 ± 0.12 (treatment: MLN4924 1 uM, 8 h).
For QCGPQTGLQSPGTLQPPEFLYSHG [TBX5], in that order: 3.41 ± 0.25 and 3.37 ± 0.34.
For NDLLEILEIDDLDAIVPAVKKLKV [CEP70], in that order: 2.4 ± 0.46 and 2.87 ± 0.27.
For ERTYSANCSDFLESKGCFANTTPS [SPATS1], in that order: 3.67 ± 0.14 and 3.56 ± 0.18.
In the case of YQARKPLWFYNTSLKFFLNKPMLA [RHOBTB3], the protein stability index is 2.67 ± 0.57 (treatment: DMSO) and 1.97 ± 0.19 (treatment: MLN4924 1 uM, 8 h).
As to AEKWQKEKDRIKSFTTNEKAILEQ [TRIM29], the protein stability index by setting is: (treatment: DMSO) 4.76 ± 0.21; (treatment: MLN4924 1 uM, 8 h) 4.8 ± 0.22.
For SREYKLVMLGAGGVGKSAMTMQFI [RIT1], in that order: 2.51 ± 0.46 and 2.27 ± 0.42.
Take GQCGENLAWASYDQTGKEVADRWY [GLIPR2]: the protein stability index (treatment: DMSO) turned out to be 2.68 ± 0.31 and the protein stability index (treatment: MLN4924 1 uM, 8 h) was 3.13 ± 0.26.
ENAQIIYSLAEDTIQGVPLSSYIS [PCDHGA10]: the protein stability index came to 2.51 ± 0.41 (treatment: DMSO) and 2.82 ± 0.43 (treatment: MLN4924 1 uM, 8 h).
For SDENGGTYVSPPGNEEEESKIFTT [DDIT3], in that order: 5.53 ± 0.36 and 5.49 ± 0.31.
For VAAAASRGADDAMESSKPGPVQVV [ATL3], in that order: 5.03 ± 0.26 and 4.9 ± 0.25.
For AREHFGTVKTHLTSLKTKFPAEQY [TSN], in that order: 3.02 ± 0.085 and 3.08 ± 0.48.
For the sequence LSFATRFHRLDEPPHICWDETHFG [POMT2], the protein stability index runs as follows: (treatment: DMSO) 2.25 ± 0.29; (treatment: MLN4924 1 uM, 8 h) 2.25 ± 0.26.
For IHGLPTEGYQALYHAVVEPMLWNP [C22orf31], in that order: 2.19 ± 0.11 and 2.13 ± 0.21.
Take LQGALDLLAVLCVDGSGRARQAAC [ZSWIM9]: the protein stability index amounted to 2.2 ± 0.27 (treatment: DMSO) and 2.02 ± 0.18 (treatment: MLN4924 1 uM, 8 h).
For PADALQYLLQFARKPVEAESVEGV [INTS4], in that order: 2.9 ± 0.29 and 2.98 ± 0.41.
For RGPGASGEQPEPGEAAAGGAAEEA [ACBD3], in that order: 5.54 ± 0.23 and 5.62 ± 0.15.
Consider FAGSMFGSVALGPVCPTVCPPGGI [KRT71], for which the protein stability index is, setting by setting: (treatment: DMSO) 2.73 ± 0.61; (treatment: MLN4924 1 uM, 8 h) 2.36 ± 0.57.
For THLLMGLAGGKLILSLEGGYNLRA [HDAC6], in that order: 3.08 ± 0.91 and 2.91 ± 1.
For PQNGSETGWARKGLGNTWPGASGS [ATP23], in that order: 4.32 ± 0.24 and 4.33 ± 0.34.
For SCKEGLSPRGPAPGEEKFENLEGV [ZNF263], in that order: 5.37 ± 0.16 and 5.23 ± 0.36.
Regarding ISDALIRRVHLTEDQWGKGTLTPR [TRIM9], the protein stability index came to 2.92 ± 0.14 (treatment: DMSO) and 3.11 ± 0.41 (treatment: MLN4924 1 uM, 8 h).
On to NGCEVKNRKSILSRHLNSQVKKTT [PHTF1], for which the protein stability index reads like this: (treatment: DMSO) 3.95 ± 0.24; (treatment: MLN4924 1 uM, 8 h) 4 ± 0.37.
For DCEVFRQRFRQFQYREAAGPHEAF [ZNF449], the protein stability index (treatment: DMSO) turned out to be 2.94 ± 0.29 and the protein stability index (treatment: MLN4924 1 uM, 8 h) turned out to be 2.93 ± 0.28.
In the case of QRFRLDNLLNMAYGVKSPLSLIAR [ELAVL3], the protein stability index by setting is: (treatment: DMSO) 2.05 ± 0.14; (treatment: MLN4924 1 uM, 8 h) 2.19 ± 0.18.
For YRWQGRRWEPSGKAEPRLPDRVYI [TBX6], in that order: 2.11 ± 0.26 and 2.22 ± 0.37.
For the sequence QFTSSSSIKGSSGLGGGSSRTSCR [KRT17], the protein stability index runs as follows: (treatment: DMSO) 4.34 ± 0.12; (treatment: MLN4924 1 uM, 8 h) 4.33 ± 0.26.
For VKGCSMYVALFPCNECAKLIIQAG [DCTD], in that order: 2.97 ± 0.37 and 2.8 ± 0.49.
Turning to VHEHDGHLYLGSFRSPFLCRLSLQ [APMAP], the protein stability index by setting is: (treatment: DMSO) 2.73 ± 0.51; (treatment: MLN4924 1 uM, 8 h) 2.33 ± 0.41.
